Values quoted from earlier work as cited in paper PMC8910494.

Molecular target: FICD (Homo sapiens) (UniProt Q9BVA6)

FICD (from UniProt Q9BVA6)
Kd: 1.2 nM
